Data: PMC5686111

Molecular target: protein A-derived Z-domain of the mAbSelect SuRe resin
Experiment: protein A (Z-domain) affinity chromatography, pH-gradient elution

human IgG1 T307P, L309Q (antibody)
elution pH from the protein A (Z-domain) column: 4.48 pH
